Laboratory results taken from US20240180966A1 (YEDA RESEARCH AND DEVELOPMENT, published 2024).
Values belong to the binder of their own block, whether it stands above or below them.

What was measured:
HLA-A*01:01 [1] = molecular target: T1, HLA-A*01:01 (human); experiment: HLA-peptidomics (W6/32 immunoaffinity, LC-MS/MS) of HLA-A*01:01 mono-allelic 721.221 cells with a RAS.Q61K minigene
T1 construct: whole, on cells; also called HLA allele A*01:01

HLA-A*01:01 [2] = molecular target: T1, HLA-A*01:01; experiment: HLA-peptidomics (targeted MS) of HLA-A*01:01 mono-allelic 721.221 cells with a RAS.Q61R minigene
[3] = molecular target: T2, NRAS Q61K (RAS.Q61K; the sequence is shared by NRAS, KRAS and HRAS) peptide on HLA-A*01:01 (human); experiment: multimer staining
T2 peptide: ILDTAGKEEY

[4] = molecular target: T3, NRAS wild-type (Q61) peptide on HLA-A*01:01 (human); experiment: cytokine release
T3 peptide: ILDTAGQEEY

[5] = molecular target: T4, NRAS Q61R (RAS.Q61R) peptide on HLA-A*01:01 (human); experiment: activation reporter or marker
T4 peptide: ILDTAGREEY

Binder: ILDTAGKEEY (also called RAS.Q61K-derived neopeptide) [ILDTAGKEEY (SEQ ID NO: 1) neopeptide]
binding result (HLA-A*01:01 [1]): binds

Binder: ILDTAGREEY (also called RAS.Q61R-derived neopeptide) [ILDTAGREEY (SEQ ID NO: 34) neopeptide]
binding result (HLA-A*01:01 [2]): binds

B1: N135.1 (TCR)
alpha TRAV19 TRAJ39 CDR3: CALSESHNNAGNMLTF
beta TRBV6-1 TRBJ1-1 CDR3: CAASQNTEAFF
binding result [3]: recognises | binding result [4]: no recognition | binding result [5]: no recognition

B2: N17.2 (TCR)
alpha TRAV5 TRAJ9 CDR3: CAESSGGGFKTIF
beta TRBV6-6 TRBJ2-7 CDR3: CASSTPGPSAYEQYF
binding result [3]: recognises | binding result [4]: no recognition | binding result [5]: no recognition

Further lines, results first:

binding result [3]: recognises | binding result [4]: no recognition | binding result [5]: no recognition
B3: N17.3.2 (TCR)
alpha TRAV19 TRAJ17 CDR3: CALSESGDAAGNKLTF
beta TRBV6-1 TRBJ1-1 CDR3: CAEGENTEAFF

binding result [3]: recognises | binding result [4]: no recognition
B4: NH2 (TCR)
alpha TRAV19 TRAJ39 CDR3: CALSETINNAGNMLTF
beta TRBV6-1 TRBJ1-1 CDR3: CAASQNTEAFF
